{"source": "paper PMC4569573", "key": {"[1]": {"biological_target": "human AmphiphysinII/Bin1 N-BAR domain (human)", "assay": "double-mixing stopped-flow N assay (fluorescence); unfolded in 4 M urea, refolding at 1 to 5 μM N-BAR in 0.66 M urea for 0.1 to 300 s, then unfolding in 4.5 M urea; λ2 from the amplitudes of the fast unfolding phase λ5; 15°C; step: monomers to dimeric intermediate I2"}, "[2]": {"biological_target": "human AmphiphysinII/Bin1 N-BAR domain (human)", "assay": "stopped-flow refolding kinetics, single mixing (fluorescence); unfolded in 4 M urea, refolding by 11-fold dilution to 0.4 M urea, 0.1 to 5 μM N-BAR, 20 mM Na phosphate, 100 mM NaCl, pH 7.4, 15°C; step: two monomeric intermediates I to dimeric intermediate I2; λ2 fixed to the value from fluorescence anisotropy"}}}
{"substance": "human AmphiphysinII/Bin1 N-BAR domain (domain or fragment)", "values": [{"measurement": "λ2, second-order rate constant of the dimerization step at 0.66 M urea, 1 μM N-BAR", "setting": "[1]", "result": 260000, "unit": "M⁻¹ s⁻¹"}, {"measurement": "λ2, second-order rate constant of the dimerization step at 0.66 M urea, 2 μM N-BAR", "setting": "[1]", "result": 480000, "unit": "M⁻¹ s⁻¹"}, {"measurement": "λ2, second-order rate constant of the dimerization step at 0.66 M urea, 5 μM N-BAR", "setting": "[1]", "result": 430000, "unit": "M⁻¹ s⁻¹"}, {"measurement": "λ2, second-order rate constant of the dimerization step at 0.4 M urea", "setting": "[2]", "result": 620000, "unit": "M⁻¹ s⁻¹"}]}
